{"source": "paper PMC3057930", "about": "(Proteins, 2010)", "key": {"[1]": {"target": "T1, CaM1-148 (Paramecium tetraurelia, UniProt P07463)", "test": "CaM titration of Fl-βCaNp, fluorescence anisotropy, CaM1-148", "format": "binding", "conditions": "CaM1-148, Ca2+-saturated (limiting value), 10 mM CaCl2, 100 nM Fl-βCaNp, stoichiometric titration, upper limit, pH 7.4, 22 °C"}, "[2]": {"target": "T1, CaM1-148", "test": "Population distribution of calcium ligation species"}, "[3]": {"test_system": "CaM C-domain vs N-domain", "conditions": "ref [15]; cited from earlier work"}, "[4]": {"target": "CaN", "conditions": "cited from earlier work"}, "[5]": {"test_system": "CaN", "conditions": "CaM binding to CaNA; ref [9],[10]; cited from earlier work"}, "[6]": {"test_system": "15N-(Ca^2+)4-CaM1-148", "test": "15N T2 relaxation by NMR", "format": "physicochemical, Paramecium", "conditions": "500 μM 15N-CaM1-148, 10-20% molar excess of peptide; 5 mM CaCl2, 50 mM HEPES, pH 7.4; 22 °C; 800 MHz; excluding mobile termini"}, "[7]": {"target": "(Ca^2+)4-CaM1-148 (Paramecium tetraurelia, UniProt P07463)", "conditions": "Ca2+-CaM1-148 bound to melittin; 10 mM CaCl2; ref Sorensen et al [42]; cited from earlier work"}}, "note": "Marks after values point to notes of the source that are not given here."}
{"compound": "CC[C@H](C)[C@H](NC(=O)[C@H](C)NC(=O)[C@H](CCCNC(=N)N)NC(=O)[C@@H](NC(=O)[C@H](CCCCN)NC(=O)[C@H](CC(N)=O)NC(=O)[C@H](CCCNC(=N)N)NC(=O)[C@@H](NC(=O)[C@@H](NC(=O)[C@H](CCC(=O)O)NC(=O)[C@H](CCCCN)NC(=O)[C@H](CCCNC(=N)N)NC(=O)[C@H](C)N)[C@@H](C)CC)[C@@H](C)CC)[C@@H](C)CC)C(=O)NCC(=O)N[C@@H](CCCCN)C(=O)N[C@@H](CCSC)C(=O)N[C@@H](C)C(=O)N[C@@H](CCCNC(=N)N)C(=O)N[C@H](C(=O)N[C@@H](Cc1ccccc1)C(=O)N[C@@H](CO)C(=O)N[C@H](C(=O)N[C@@H](CC(C)C)C(=O)N[C@@H](CCCNC(=N)N)C(=O)O)C(C)C)C(C)C", "note": "[βCaNp]", "values": [{"measurement": "Kd", "setting": "[1]", "value": "≤ 1", "unit": "nM"}, {"measurement": "cooperativity term kI–II", "setting": "[2]; CaM1-148, presence of βCaNp", "value": 19.90, "unit": "M⁻¹"}]}
{"compound": "CaM1-148: full-length Paramecium CaM, residues 1-148", "values": [{"measurement": "cooperativity term kIII–IV", "setting": "[2]; CaM1-148, absence of βCaNp", "value": 54.39, "unit": "M⁻¹"}, {"measurement": "cooperativity term kI–II", "setting": "[2]; CaM1-148, absence of βCaNp", "value": 1.73, "unit": "M⁻¹"}, {"measurement": "calcium affinity of C-domain relative to N-domain", "setting": "[3]", "value": "~ 25 fold"}]}
{"compound": "Calmodulin [CaM]", "values": [{"measurement": "Ca2+ concentration of maximal population of intermediate (0011)", "setting": "[2]; CaM alone, simulation", "value": 2, "unit": "µM"}, {"measurement": "maximal population of intermediate (0011)", "setting": "[2]; CaM alone, simulation", "value": 70, "unit": "%"}, {"measurement": "dissociation constant of (Ca2+)4-CaM from CaN (range in words)", "setting": "[4]; ref [35]", "value": "low nM range"}, {"measurement": "Kd of full-length CaM from CaN (range in words)", "setting": "[4]; ref [36]", "value": "pM range"}, {"measurement": "increase of phosphatase activity of CaN", "setting": "[5]", "value": 10, "unit": "fold"}]}
{"compound": "Mammalian CaM [mCaM]", "values": [{"measurement": "calcium affinity of C-domain relative to N-domain", "setting": "[3]", "value": "about 10 fold"}]}
{"compound": "Melittin: another peptide that forms a 1:1 complex with CaM (GIGAVLKVLTTGLPALISWIKRKRQQG)", "values": [{"measurement": "Average T2", "setting": "[6]", "value": "0.050 ± 0.006", "unit": "s"}, {"measurement": "Stokes Radius", "setting": "[7]", "value": "22.94 ± 0.32 ^f Å"}]}
